B1: AID (protein, UniProt Q9GZX7 1-198, looked up)
Single-stranded DNA cytosine …: MDSLLMNRRKFLYQFKNVRWAKGRRETYLCYVVKRRDSATSFSLDFGYLRNKNGCHVELLFLRYISDWDLDPGRCYRVTWFTSWSPCYDCARHVADFLRGNPNLSLRIFTARLYFCEDRKAEPEGLRRLHRAGVQIAIMTFKDYFYCWNTFVENHERTFKAWEGLHENSVRLSRQLRRILLPLYEVDDLRDAFRTLGL
B2: dominant negative dynamin (K44A) (protein, UniProt Q05193 1-864, looked up, variant K44A)
Dynamin-1: MGNRGMEDLIPLVNRLQDAFSAIGQNADLDLPQIAVVGGQSAGASSVLENFVGRDFLPRGSGIVTRRPLVLQLVNATTEYAEFLHCKGKKFTDFEEVRLEIEAETDRVTGTNKGISPVPINLRVYSPHVLNLTLVDLPGMTKVPVGDQPPDIEFQIRDMLMQFVTKENCLILAVSPANSDLANSDALKVAKEVDPQGQRTIGVITKLDLMDEGTDARDVLENKLLPLRRGYIGVVNRSQKDIDGKKDITAALAAERKFFLSHPSYRHLADRMGTPYLQKVLNQQLTNHIRDTLPGLRNKLQSQLLSIEKEVEEYKNFRPDDPARKTKALLQMVQQFAVDFEKRIEGSGDQIDTYELSGGARINRIFHERFPFELVKMEFDEKELRREISYAIKNIHGIRTGLFTPDMAFETIVKKQVKKIREPCLKCVDMVISELISTVRQCTKKLQQYPRLREEMERIVTTHIREREGRTKEQVMLLIDIELAYMNTNHEDFIGFANAQQRSNQMNKKKTSGNQDEILVIRKGWLTINNIGIMKGGSKEYWFVLTAENLSWYKDDEEKEKKYMLSVDNLKLRDVEKGFMSSKHIFALFNTEQRNVYKDYRQLELACETQEEVDSWKASFLRAGVYPERVGDKEKASETEENGSDSFMHSMDPQLERQVETIRNLVDSYMAIVNKTVRDLMPKTIMHLMINNTKEFIFSELLANLYSCGDQNTLMEESAEQAQRRDEMLRMYHALKEALSIIGDINTTTVSTPMPPPVDDSWLQVQSVPAGRRSPTSSPTPQRRAPAVPPARPGSRGPAPGPPPAGSALGGAPPVPSRPGASPDPFGPPPQVPSRPNRAPPGVPSRSGQASPSRPESPRPPFDL

Tested on: vaccinia virus mature virions (EGFP-MV)
Format: cell-based

Row | Molecule | inhibition of infection by expression of construct | effect of expressed construct on infection
1 | B1 | 80% | –
2 | B2 | – | no impact
